# Experimental data: US20230416330A1, “Optimized GIP Peptide Analogues” (Antag Therapeutics ApS, priority 2019, published 2023)
# No end group written: not given here. *: point of attachment. C20 diacid = O=C(O)CCCCCCCCCCCCCCCCCCC(=O)*; C16 diacid = O=C(O)CCCCCCCCCCCCCCC(=O)*
# T1: human GIP receptor (human, UniProt P48546 22-466)
# T1 sequence (looked up): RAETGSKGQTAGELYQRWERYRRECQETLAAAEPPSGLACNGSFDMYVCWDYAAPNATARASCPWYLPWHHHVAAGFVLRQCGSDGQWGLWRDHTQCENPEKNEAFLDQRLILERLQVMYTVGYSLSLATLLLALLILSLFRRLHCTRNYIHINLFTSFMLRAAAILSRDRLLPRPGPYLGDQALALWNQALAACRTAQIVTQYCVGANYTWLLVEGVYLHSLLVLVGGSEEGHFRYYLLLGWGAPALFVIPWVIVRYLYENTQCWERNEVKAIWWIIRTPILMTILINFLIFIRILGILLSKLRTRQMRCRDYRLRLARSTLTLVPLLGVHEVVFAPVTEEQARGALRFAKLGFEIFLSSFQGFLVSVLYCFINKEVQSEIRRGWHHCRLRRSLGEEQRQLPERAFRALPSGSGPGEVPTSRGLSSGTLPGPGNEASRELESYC
# B1: AT748 (peptide)
# peptide: EGTFISDYSIAMDAIK(C16 diacid)QQDFVEWLLAQKPSSGAPPPS-OH
# modifications: N-terminus assumed
# SMILES: CC[C@H](C)[C@H](NC(=O)[C@H](C)NC(=O)[C@H](CC(=O)O)NC(=O)[C@H](CCSC)NC(=O)[C@H](C)NC(=O)[C@@H](NC(=O)[C@H](CO)NC(=O)[C@H](Cc1ccc(O)cc1)NC(=O)[C@H](CC(=O)O)NC(=O)[C@H](CO)NC(=O)[C@@H](NC(=O)[C@H](Cc1ccccc1)NC(=O)[C@@H](NC(=O)CNC(=O)[C@@H](N)CCC(=O)O)[C@@H](C)O)[C@@H](C)CC)[C@@H](C)CC)C(=O)N[C@@H](CCCCNC(=O)CCCCCCCCCCCCCCC(=O)O)C(=O)N[C@@H](CCC(N)=O)C(=O)N[C@@H](CCC(N)=O)C(=O)N[C@@H](CC(=O)O)C(=O)N[C@@H](Cc1ccccc1)C(=O)N[C@H](C(=O)N[C@@H](CCC(=O)O)C(=O)N[C@@H](Cc1c[nH]c2ccccc12)C(=O)N[C@@H](CC(C)C)C(=O)N[C@@H](CC(C)C)C(=O)N[C@@H](C)C(=O)N[C@@H](CCC(N)=O)C(=O)N[C@@H](CCCCN)C(=O)N1CCC[C@H]1C(=O)N[C@@H](CO)C(=O)N[C@@H](CO)C(=O)NCC(=O)N[C@@H](C)C(=O)N1CCC[C@H]1C(=O)N1CCC[C@H]1C(=O)N1CCC[C@H]1C(=O)N[C@@H](CO)C(=O)O)C(C)C
# B2: AT747 (peptide)
# peptide: EGTFISDYSIAMDKIK(C16 diacid)QQDFVEWLLAEKPSSGAPPPS-OH
# modifications: N-terminus assumed
# SMILES: CC[C@H](C)[C@H](NC(=O)[C@H](CO)NC(=O)[C@H](Cc1ccc(O)cc1)NC(=O)[C@H](CC(=O)O)NC(=O)[C@H](CO)NC(=O)[C@@H](NC(=O)[C@H](Cc1ccccc1)NC(=O)[C@@H](NC(=O)CNC(=O)[C@@H](N)CCC(=O)O)[C@@H](C)O)[C@@H](C)CC)C(=O)N[C@@H](C)C(=O)N[C@@H](CCSC)C(=O)N[C@@H](CC(=O)O)C(=O)N[C@@H](CCCCN)C(=O)N[C@H](C(=O)N[C@@H](CCCCNC(=O)CCCCCCCCCCCCCCC(=O)O)C(=O)N[C@@H](CCC(N)=O)C(=O)N[C@@H](CCC(N)=O)C(=O)N[C@@H](CC(=O)O)C(=O)N[C@@H](Cc1ccccc1)C(=O)N[C@H](C(=O)N[C@@H](CCC(=O)O)C(=O)N[C@@H](Cc1c[nH]c2ccccc12)C(=O)N[C@@H](CC(C)C)C(=O)N[C@@H](CC(C)C)C(=O)N[C@@H](C)C(=O)N[C@@H](CCC(=O)O)C(=O)N[C@@H](CCCCN)C(=O)N1CCC[C@H]1C(=O)N[C@@H](CO)C(=O)N[C@@H](CO)C(=O)NCC(=O)N[C@@H](C)C(=O)N1CCC[C@H]1C(=O)N1CCC[C@H]1C(=O)N1CCC[C@H]1C(=O)N[C@@H](CO)C(=O)O)C(C)C)[C@@H](C)CC
# B3: AT746 (peptide)
# peptide: EGTFISDYAIAMDKIK(C16 diacid)QQDFVEWLLAQKPSSGAPPPS-OH
# modifications: N-terminus assumed
# SMILES: CC[C@H](C)[C@H](NC(=O)[C@H](C)NC(=O)[C@H](Cc1ccc(O)cc1)NC(=O)[C@H](CC(=O)O)NC(=O)[C@H](CO)NC(=O)[C@@H](NC(=O)[C@H](Cc1ccccc1)NC(=O)[C@@H](NC(=O)CNC(=O)[C@@H](N)CCC(=O)O)[C@@H](C)O)[C@@H](C)CC)C(=O)N[C@@H](C)C(=O)N[C@@H](CCSC)C(=O)N[C@@H](CC(=O)O)C(=O)N[C@@H](CCCCN)C(=O)N[C@H](C(=O)N[C@@H](CCCCNC(=O)CCCCCCCCCCCCCCC(=O)O)C(=O)N[C@@H](CCC(N)=O)C(=O)N[C@@H](CCC(N)=O)C(=O)N[C@@H](CC(=O)O)C(=O)N[C@@H](Cc1ccccc1)C(=O)N[C@H](C(=O)N[C@@H](CCC(=O)O)C(=O)N[C@@H](Cc1c[nH]c2ccccc12)C(=O)N[C@@H](CC(C)C)C(=O)N[C@@H](CC(C)C)C(=O)N[C@@H](C)C(=O)N[C@@H](CCC(N)=O)C(=O)N[C@@H](CCCCN)C(=O)N1CCC[C@H]1C(=O)N[C@@H](CO)C(=O)N[C@@H](CO)C(=O)NCC(=O)N[C@@H](C)C(=O)N1CCC[C@H]1C(=O)N1CCC[C@H]1C(=O)N1CCC[C@H]1C(=O)N[C@@H](CO)C(=O)O)C(C)C)[C@@H](C)CC
# B4: AT745 (peptide)
# peptide: EGTFISDYSIAMDKIK(C16 diacid)QQAFVEWLLAQKPSSGAPPPS-OH
# modifications: N-terminus assumed
# SMILES: CC[C@H](C)[C@H](NC(=O)[C@H](CO)NC(=O)[C@H](Cc1ccc(O)cc1)NC(=O)[C@H](CC(=O)O)NC(=O)[C@H](CO)NC(=O)[C@@H](NC(=O)[C@H](Cc1ccccc1)NC(=O)[C@@H](NC(=O)CNC(=O)[C@@H](N)CCC(=O)O)[C@@H](C)O)[C@@H](C)CC)C(=O)N[C@@H](C)C(=O)N[C@@H](CCSC)C(=O)N[C@@H](CC(=O)O)C(=O)N[C@@H](CCCCN)C(=O)N[C@H](C(=O)N[C@@H](CCCCNC(=O)CCCCCCCCCCCCCCC(=O)O)C(=O)N[C@@H](CCC(N)=O)C(=O)N[C@@H](CCC(N)=O)C(=O)N[C@@H](C)C(=O)N[C@@H](Cc1ccccc1)C(=O)N[C@H](C(=O)N[C@@H](CCC(=O)O)C(=O)N[C@@H](Cc1c[nH]c2ccccc12)C(=O)N[C@@H](CC(C)C)C(=O)N[C@@H](CC(C)C)C(=O)N[C@@H](C)C(=O)N[C@@H](CCC(N)=O)C(=O)N[C@@H](CCCCN)C(=O)N1CCC[C@H]1C(=O)N[C@@H](CO)C(=O)N[C@@H](CO)C(=O)NCC(=O)N[C@@H](C)C(=O)N1CCC[C@H]1C(=O)N1CCC[C@H]1C(=O)N1CCC[C@H]1C(=O)N[C@@H](CO)C(=O)O)C(C)C)[C@@H](C)CC
# B5: AT750 (peptide)
# peptide: EGTFISDYSIAMDKIK(C20 diacid)QQDFVEWLLAQKPSSGAPPPS-OH
# modifications: N-terminus assumed
# SMILES: CC[C@H](C)[C@H](NC(=O)[C@H](CO)NC(=O)[C@H](Cc1ccc(O)cc1)NC(=O)[C@H](CC(=O)O)NC(=O)[C@H](CO)NC(=O)[C@@H](NC(=O)[C@H](Cc1ccccc1)NC(=O)[C@@H](NC(=O)CNC(=O)[C@@H](N)CCC(=O)O)[C@@H](C)O)[C@@H](C)CC)C(=O)N[C@@H](C)C(=O)N[C@@H](CCSC)C(=O)N[C@@H](CC(=O)O)C(=O)N[C@@H](CCCCN)C(=O)N[C@H](C(=O)N[C@@H](CCCCNC(=O)CCCCCCCCCCCCCCCCCCC(=O)O)C(=O)N[C@@H](CCC(N)=O)C(=O)N[C@@H](CCC(N)=O)C(=O)N[C@@H](CC(=O)O)C(=O)N[C@@H](Cc1ccccc1)C(=O)N[C@H](C(=O)N[C@@H](CCC(=O)O)C(=O)N[C@@H](Cc1c[nH]c2ccccc12)C(=O)N[C@@H](CC(C)C)C(=O)N[C@@H](CC(C)C)C(=O)N[C@@H](C)C(=O)N[C@@H](CCC(N)=O)C(=O)N[C@@H](CCCCN)C(=O)N1CCC[C@H]1C(=O)N[C@@H](CO)C(=O)N[C@@H](CO)C(=O)NCC(=O)N[C@@H](C)C(=O)N1CCC[C@H]1C(=O)N1CCC[C@H]1C(=O)N1CCC[C@H]1C(=O)N[C@@H](CO)C(=O)O)C(C)C)[C@@H](C)CC
# B6: AT744 (peptide)
# peptide: EGTFISDYSIAMDKIHQQDFVEWLLAQKPSSGAPPPSK(C16 diacid)-OH
# modifications: N-terminus assumed
# SMILES: CC[C@H](C)[C@H](NC(=O)[C@H](CO)NC(=O)[C@H](Cc1ccc(O)cc1)NC(=O)[C@H](CC(=O)O)NC(=O)[C@H](CO)NC(=O)[C@@H](NC(=O)[C@H](Cc1ccccc1)NC(=O)[C@@H](NC(=O)CNC(=O)[C@@H](N)CCC(=O)O)[C@@H](C)O)[C@@H](C)CC)C(=O)N[C@@H](C)C(=O)N[C@@H](CCSC)C(=O)N[C@@H](CC(=O)O)C(=O)N[C@@H](CCCCN)C(=O)N[C@H](C(=O)N[C@@H](Cc1c[nH]cn1)C(=O)N[C@@H](CCC(N)=O)C(=O)N[C@@H](CCC(N)=O)C(=O)N[C@@H](CC(=O)O)C(=O)N[C@@H](Cc1ccccc1)C(=O)N[C@H](C(=O)N[C@@H](CCC(=O)O)C(=O)N[C@@H](Cc1c[nH]c2ccccc12)C(=O)N[C@@H](CC(C)C)C(=O)N[C@@H](CC(C)C)C(=O)N[C@@H](C)C(=O)N[C@@H](CCC(N)=O)C(=O)N[C@@H](CCCCN)C(=O)N1CCC[C@H]1C(=O)N[C@@H](CO)C(=O)N[C@@H](CO)C(=O)NCC(=O)N[C@@H](C)C(=O)N1CCC[C@H]1C(=O)N1CCC[C@H]1C(=O)N1CCC[C@H]1C(=O)N[C@@H](CO)C(=O)N[C@@H](CCCCNC(=O)CCCCCCCCCCCCCCC(=O)O)C(=O)O)C(C)C)[C@@H](C)CC
# B7: AT749 (peptide)
# peptide: EGTFISDYSIAMDKIK(C16 diacid)QQDFVEWLLAQK-OH
# modifications: N-terminus assumed
# SMILES: CC[C@H](C)[C@H](NC(=O)[C@H](CO)NC(=O)[C@H](Cc1ccc(O)cc1)NC(=O)[C@H](CC(=O)O)NC(=O)[C@H](CO)NC(=O)[C@@H](NC(=O)[C@H](Cc1ccccc1)NC(=O)[C@@H](NC(=O)CNC(=O)[C@@H](N)CCC(=O)O)[C@@H](C)O)[C@@H](C)CC)C(=O)N[C@@H](C)C(=O)N[C@@H](CCSC)C(=O)N[C@@H](CC(=O)O)C(=O)N[C@@H](CCCCN)C(=O)N[C@H](C(=O)N[C@@H](CCCCNC(=O)CCCCCCCCCCCCCCC(=O)O)C(=O)N[C@@H](CCC(N)=O)C(=O)N[C@@H](CCC(N)=O)C(=O)N[C@@H](CC(=O)O)C(=O)N[C@@H](Cc1ccccc1)C(=O)N[C@H](C(=O)N[C@@H](CCC(=O)O)C(=O)N[C@@H](Cc1c[nH]c2ccccc12)C(=O)N[C@@H](CC(C)C)C(=O)N[C@@H](CC(C)C)C(=O)N[C@@H](C)C(=O)N[C@@H](CCC(N)=O)C(=O)N[C@@H](CCCCN)C(=O)O)C(C)C)[C@@H](C)CC
# Target: T1, human GIP receptor
# Assay: cell-based or functional assay
Binder,"nM (Kb, Gaddum assay, cAMP) [nM]","pKb (Gaddum assay, cAMP)"
B1,0.42,9.4
B2,14,7.9
B3,0.97,9
B4,0.49,9.3
B5,4.1,8.4
B6,4.8,8.3
B7,2.2,8.7
